# In IntAct's records for PubMed 25535969:
# B1: Lysine-specific demethylase 3A (Homo sapiens), Q9Y4C1 (parent)
# chain: MVLTLGESWPVLVGRRFLSLSAADGSDGSHDSWDVERVAEWPWLSGTIRAVSHTDVTKKDLKVCVEFDGESWRKRRWIEVYSLLRRAFLVEHNLVLAERKSPEISERIVQWPAITYKPLLDKAGLGSITSVRFLGDQQRVFLSKDLLKPIQDVNSLRLSLTDNQIVSKEFQALIVKHLDESHLLKGDKNLVGSEVKIYSLDPSTQWFSATVINGNPASKTLQVNCEEIPALKIVDPSLIHVEVVHDNLVTCGNSARIGAVKRKSSENNGTLVSKQAKSCSEASPSMCPVQSVPTTVFKEILLGCTAATPPSKDPRQQSTPQAANSPPNLGAKIPQGCHKQSLPEEISSCLNTKSEALRTKPDVCKAGLLSKSSQIGTGDLKILTEPKGSCTQPKTNTDQENRLESVPQALTGLPKECLPTKASSKAELEIANPPELQKHLEHAPSPSDVSNAPEVKAGVNSDSPNNCSGKKVEPSALACRSQNLKESSVKVDNESCCSRSNNKIQNAPSRKSVLTDPAKLKKLQQSGEAFVQDDSCVNIVAQLPKCRECRLDSLRKDKEQQKDSPVFCRFFHFRRLQFNKHGVLRVEGFLTPNKYDNEAIGLWLPLTKNVVGIDLDTAKYILANIGDHFCQMVISEKEAMSTIEPHRQVAWKRAVKGVREMCDVCDTTIFNLHWVCPRCGFGVCVDCYRMKRKNCQQGAAYKTFSWLKCVKSQIHEPENLMPTQIIPGKALYDVGDIVHSVRAKWGIKANCPCSNRQFKLFSKPASKEDLKQTSLAGEKPTLGAVLQQNPSVLEPAAVGGEAASKPAGSMKPACPASTSPLNWLADLTSGNVNKENKEKQPTMPILKNEIKCLPPLPPLSKSSTVLHTFNSTILTPVSNNNSGFLRNLLNSSTGKTENGLKNTPKILDDIFASLVQNKTTSDLSKRPQGLTIKPSILGFDTPHYWLCDNRLLCLQDPNNKSNWNVFRECWKQGQPVMVSGVHHKLNSELWKPESFRKEFGEQEVDLVNCRTNEIITGATVGDFWDGFEDVPNRLKNEKEPMVLKLKDWPPGEDFRDMMPSRFDDLMANIPLPEYTRRDGKLNLASRLPNYFVRPDLGPKMYNAYGLITPEDRKYGTTNLHLDVSDAANVMVYVGIPKGQCEQEEEVLKTIQDGDSDELTIKRFIEGKEKPGALWHIYAAKDTEKIREFLKKVSEEQGQENPADHDPIHDQSWYLDRSLRKRLHQEYGVQGWAIVQFLGDVVFIPAGAPHQVHNLYSCIKVAEDFVSPEHVKHCFWLTQEFRYLSQTHTNHEDKLQVKNVIYHAVKDAVAMLKASESSFGKP
# Variants of: B1
# Settings: with STAT1, P42224-1
# STAT1, P42224-1, sequence (P42224 whole entry): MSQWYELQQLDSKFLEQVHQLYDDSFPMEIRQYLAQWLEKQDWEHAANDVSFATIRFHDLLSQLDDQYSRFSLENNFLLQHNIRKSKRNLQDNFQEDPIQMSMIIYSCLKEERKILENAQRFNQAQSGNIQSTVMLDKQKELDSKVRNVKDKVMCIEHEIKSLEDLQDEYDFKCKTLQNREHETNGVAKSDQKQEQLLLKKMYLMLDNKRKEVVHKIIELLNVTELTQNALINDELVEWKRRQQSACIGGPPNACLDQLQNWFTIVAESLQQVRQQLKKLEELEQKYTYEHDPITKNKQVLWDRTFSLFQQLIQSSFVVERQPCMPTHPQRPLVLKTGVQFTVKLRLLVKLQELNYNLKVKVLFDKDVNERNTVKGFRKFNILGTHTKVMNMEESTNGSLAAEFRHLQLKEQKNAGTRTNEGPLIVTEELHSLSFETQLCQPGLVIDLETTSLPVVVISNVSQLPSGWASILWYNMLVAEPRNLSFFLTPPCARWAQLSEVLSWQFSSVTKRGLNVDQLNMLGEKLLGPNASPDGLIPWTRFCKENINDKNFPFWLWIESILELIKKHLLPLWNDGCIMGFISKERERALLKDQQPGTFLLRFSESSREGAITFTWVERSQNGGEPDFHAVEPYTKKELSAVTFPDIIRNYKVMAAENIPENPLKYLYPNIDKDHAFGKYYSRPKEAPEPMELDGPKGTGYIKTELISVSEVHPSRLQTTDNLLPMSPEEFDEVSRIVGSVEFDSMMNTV
row,effect of a mutation on the interaction,Variant
1,disrupting interaction strength,S264A
